The text below walks through data of a protein production outcome set (Wang et al. 2014).

This data set can be described thus: label from the status in PepcDB records.
Regarding “SDIGQVIHPDDFDKAAADDYVLHEDGEKIYFLIKSKTDEYCFTNLALVHLDGESAVSSKRVLYRYPYAHYPIRHVMFETAGTVDLDVEIKFEIGGKHYSIDVDKKQLEHVKDLYKALLAIAEKQYEGQKMLEFANSSLNHSVTILGGLRQGDMNVPQTFKDLSQESFDWLQGHYYKWNQKDFGSFYEKYINN”, the protein production result is “not failed”.
As to “SDILLVHGSGYGGWCWDATIRALAAHGARARALDLPGRIFTPGLSLADHAAAILQEIRAPVTLVGHSAGGFSIAAAAEAAAPGLIERLIFLCAYAPRDGASVASMRRAQARQPLRPAIRLAPDRLSYSFDPDLAGEALFHDCPPEVRAAALARMGAEPVGPQEERIRLSARYHALPKHYIRCLEDRAIPPETQEAMTADWPAGSVSTLPAGHSPFLSCPEALAKRLISVAAN”, the protein production entry is reported as “failed”.
For the sequence “SDPEISEQDEEKKKYTSVCVGREEDIRKSERMTAVVHDREVVIFYHKGEYHAMDIRCYHSGGPLHLGEIEDFNGQSCIVCPWHKYKITLATGEGLYQSINPKDPSAKPKWCSKGVKQRIHTVKVDNGNIYVTLSKEPFKCDSDYYATGEFKVIQSSS”, the protein production result is reported as “failed”.
On to “SEAGGLPLELWRMILAYLHLPDLGRCSLVCRAWYELILSLDSTRWRQLCLGCTECRHPNWPNQPDVEPESWREAFKQHYLASKTWTKNALDLESSICFSLFRRRRERRTLSVGPGREFDSLGSALAMASLYDRIVLFPGVYEEQGEIILKVPVEIVGQGKLGEVALLASIDQHCSTTRLCNLVFTPAWFSPIMYKTTSGHVQFDNCNFENGHIQVHGPGTCQVKFCTFKNTHIFLHNVPLCVLENCEFVGSENNSVTVEGHPSADKNWAYKYLLGLIKSSPTFLPTEDSD”, for which the protein production entry is on record as “not failed”.
On to “SEAKVTRSCAETRQVLGARGYSLNLIPPALISGEHLRVCPQEYTCCSSETEQRLIRETEATFRGLVEDSGSFLVHTLAARHRKFDEFFLEMLSVAQHSLTQLFSHSYGRLYAQHALIFNGLFSRLRDFYGESGEGLDDTLADFWAQLLERVFPLLHPQYSFPPDYLLCLSRLASSTDGSLQPFGDSPRRLRLQITRTLVAARAFVQGLETGRNVVSEALKVPVSEGCSQALMRLIGCPLCRGVPSLMPCQGFCLNVVRGCLSSRGLEPDWGNYLDGLLILADKLQGPFSFELTAESIGVKISEGLMYLQENSAKVSAQVFQECGPPDPVPARNRRAPPPREEAGRLWSMVTEEERPTTAAGTNLHRLVWELRERLARMRGFWARLSLTVCGDSRMAADASLEAAPCWTGAGRGRYLPPVVGGSPAEQVNNPELKVDASGPDVPTRRRRLQLRAATARMKTAALGHDLDGQDADEDASGSGGGQQYADDWMAGAVAPPARPPRPPYPPRRDGSGGKGGGGSARYNQGRSRSGGASIGFHTQTILILSLSALALLGPR”, for which the protein production entry was “failed”.
As to “SEDTMDRINKDHDHTTSVASRFILADVITSTAFSNASGDINTYASSYIEYEVGVDNQLYYAEVRENEPSSSSTFNNSWNGIYSSLKNARIIIDQCGEGGRDHGNDVTRGMAEVMAAYNCALIADFFGDAPCSQAALVDEKGSPVYMTPKMDTQQEIYTQIISYLDDAIANLQKEDLADVTEQDFLYAGDADKWLKFAYGLKARYTMRLINRSSNKSADYEKVLDYVSKSFTSADDQAAFDIYDSNNINPFYGFYNSRAGFGASTSLGTKLLAYNDPRANRAFFTPIVDKKRSQVAANDPSLVPAPNGSPDQSTSKYGISAFVYAKTAPTLLMSYHELMFLKAEALCRLNRDAEDALKEAVVAGLLNAENSISIAIKELGSGLNTNSSEVITETSAGKYFDDVVKAKYAANPLQETMIQKYLAMWGASGEATETYNDFRRMKGLNENFITLTNPNNSSKFPLRYPYGNSDTAANPEVKAAYGNGDYVYSEPVWWAGGSR”, the protein production result was “not failed”.
As to “SEKPAGSLQEQALKRKERLKALRDRQLQGHAPADGEPERKRALEDTETEDRHRELKLRNYTPEDVELKERQVPKAKPASVDDKVKDQLEAANPEPVIEEVDLANLAPRKPDWDLKRDVAKKLEKLERRTQKAIAELIRERLKGSEEELAGAVGAVGVEEGDSD”, the protein production result is listed as “failed”.
In the case of “SERNDIINFKALEKELQAALTADEKYKRENAAKLRAVEQRVASYEEFRGIVLASHLKPLERKDKMGGKRTVPWNCHTIQGRTFQDVATEISPEKAPLQPETSADFYRDWRRHLPSGPERYQALLQLGGPRLGCLFQTDVGFGLLGELLVALADHVGPADRAAVLGILCSLASTGRFTLNLSLLSRAERESCKGLFQKLQAMGNPRSVKEGLSWEEQGLEEQSGGLQEEERLLQELLELYQVD”, the protein production entry is “not failed”.
Regarding “SERRLGVRAWVKENRGSFQPPVCNKLMHQEQLKVMFIGGPNTRKDYHIEEGEEVFYQLEGDMVLRVLEQGKHRDVVIRQGEIFLLPARVPHSPQRFANTVGLVVERRRLETELDGLRYYVGDTMDVLFEKWFYCKDLGTQLAPIIQEFFSSEQYRTGKPIPDQLLKEPPFPLSTRSIMEPMSLDAWLDSHHRELQAGTPLSLFGDTYETQVIAYGQGSSEGLRQNVDVWLWQLEGSSVVTMGGRRLSLAPDDSLLVLAGTSYAWERTQGSVALSVTQDPACKKPLG”, the protein production entry was “not failed”.
Regarding “SEVRWCATSDPEQHKCGNMSEAFREAGIQPSLLCVRGTSADHCVQLIAAQEADAITLDGGAIYEAGKEHGLKPVVGEVYDQEVGTSYYAVAVVRRSSHVTIDTLKGVKSCHTGINRTVGWNVPVGYLVESGRLSVMGCDVLKAVSDYFGGSCVPGAGETSYSESLCRLCRGDSSGEGVCDKSPLERYYDYSGAFRCLAEGAGDVAFVKHSTVLENTDGKTLPSWGQALLSQDFELLCRDGSRADVTEWRQCHLARVPAHAVVVRADTDGGLIFRLLNEGQRLFSHEGSSFQMFSSEAYGQKDLLFKDSTSELVPIATQTYEAWLGHEYLHAMKGLLCDPNRLPPYLRWCVLSTPEIQKCGDMAVAFRRQRLKPEIQCVSAKSPQHCMERIQAEQVDAVTLSGEDIYTAGKKYGLVPAAGEHYAPEDSSNSYYVVAVVRRDSSHAFTLDELRGKRSCHAGFGSPAGWDVPVGALIQRGFIRPKDCDVLTAVSEFFNASCVPVNNPKNYPSSLCALCVGDEQGRNKCVGNSQERYYGYRGAFRCLVENAGDVAFVRHTTVFDNTNGHNSEPWAAELRSEDYELLCPNGARAEVSQFAACNLAQIPPHAVMVRPDTNIFTVYGLLDKAQDLFGDDHNKNGFKMFDSSNYHGQDLLFKDATVRAVPVGEKTTYRGWLGLDYVAALEGMSSQQC”, the protein production result is “not failed”.
Consider “SGGGGKAWPTHVVCSDSGLEVLYQSCDPLQDFGFSVEKCSKQLKSNINIRFGIILREDIKELFLDLALMSQGSSVLNFSYPICEAALPKFSFCGRRKGEQIYYAGPVNNPEFTIPQGEYQVLLELYTEKRSTVACANATIMCS”, for which the protein production entry is “failed”.
With “SGHFSALPSLPVGSHAKVSSPQPRGPRYAEGTFISDYSIAMDKIHQQDFVNWLLAQKGKKNDWKHNITQREARALELASQANRKEEEAVEPQSSPAKNPSDEDLLRDLLIQELLACLLDQTNLCRLRSR”, the protein production entry is reported as “failed”.
For the sequence “SGNTTSERVSGERHGAKAARAEGGGHGPGKEHKIMVGSTDDPSVFSLPDSKLPGDKEFVPWQQDLDDSVKPTQQARPTVIRWSEGGKEVFISGSFNNWSTKIPLIKSHNDFVAILDLPEGEHQYKFFVDGQWVHDPSEPVVTSQLGTINNLIHVKKSDFEVFDALKLDSMESSETSCRV”, the protein production entry is recorded as “failed”.
As to “SGRKRLITDSYPVVKRREGPAGHSKGELAPELGEEPQPRDEEEAELELLRQFDLAWQYGPCTGITRLQRWCRAKHMGLEPPPEVWQVLKTHPGDPRFQCSLWHLYPL”, the protein production entry is “failed”.
For “SGSEPTKVMVAVNASTIKDYPNPSISCKRAFEWTLEKIVRSNTSDFKILLLHVQVVDEDGFDDVDSIYASPEDFRDMRQSNKAKGLHLLEFFVNKCHEIGVGCEAWIKTGDPKDVICQEVKRVRPDFLVVGSRGLGRFQKVFVGTVSAFCVKHAECPVMTIKRNADETPSDPADD”, the protein production result was “not failed”.
The value for “SIDLRLQYLATRELRNAIAEQDAKAGSLVIMDVKTGEVLAMVNQPTYNPNNRRSMFPAAMRNRAIIDVFEPGSTVKPISMSAALQSGRWKPTDKVEVYPGSLQIGRYTIKDVSRSEGPILDLTGILINSSNVGMSKIAFDIGGEAIYRVMSQVGLGQYTGLGFPGERVGNLPNHREWRKAETATLSYGYGVSVTALQLVHAYAALANDGKMVPLSIIKVDKTPEAVQAIPKEVAETVQGMLQQVIEAPRGVFRAQVPFYHVAGKSGTARKATVGAKGYTENAYRSLFAGFGPMSDPRYAIVVVIDEPRKGGYFGGLVSAPVFSNVMSGTLRLMNVPPDNLPPPAPAPAVPSQVNAAAAKGGRG” was “failed”; that for “SIKENSYFAGGVKSLGFNQHGQDVSVGVMLPGEYTFGTQAPERMTVVKGALVVKRVGEADWTTYSSGESFDVEGNSSFELQVKDATAYLCEYL” was “not failed”; that for “SILKIEKVLKRMREIKNELLQAQNPSELYLSSKTELQGLIGQLDEVSLEKNPCIREARRRAVIEVQTLITYIDLKE” was “not failed”.
For “SIVIIFNPNSTGDAPELAQQLHGKLKELLTYQPEITLQPTEHAGHAVDLAREAASKGGDVLVVSVSGDGGYNEVVNGVMQADNPRAVAAVLAAGNANDHSRIIGTKPLEEAIAEGRVHNIDLLRIHTG”, the protein production result is reported as “failed”.
Turning to “SKAWLHQYSVVGRKIPTQEEPEPPIYRLKIFAPNVVNAKSRFWYFLRKLKRVKKSSGEILNISEIFEKKSTQVKNYGIWIRYKSRSDTINMYREYRDVTVNGAVEQMYKDMSGRHRARWSSIWVLKAMPVAAKDCRRSKVTQFHDSKIKFALPHMRPRAPLKKYNTPFKAKRPTTIVQ”, the protein production entry is given as “not failed”.
To “SKELKVLVLCAGSGTSAQLANAINEGANLTEVRVIANSGAYGAHYDIMGVYDLIILAPQVRSYYREMKVDAERLGIQIVATRGMEYIHLTKSPSKALQFVLEHYQ” belongs “not failed”; to “SKKVIGKKRAHAEDDELDPMDPSSYSDAPRGGWVVGLKGVQPRAADTTASGPLFQQRPYPSPGAVLRRNAEVASSQKKKPNSQFTEITKRGDGSDGLGDAD”, “failed”.
To “SKQKLVLASGSPRRLELLHQIGIEPARLMPMDIDETPVKLEHPRTLCRRLSQQKAEAAQAALKSEQAWKDAYVLGSDTVVAVGRRIVGKAEYTEEASAALHLLSGRSHWVYTGICLVTPDGKIRQKVAETKVRFKRLSTREIDAYIASGQWRGKAGAYGIQGIAGAFVQKLTGSYTNVVGLPLYETMSLLSGEGFEV” belongs “failed”.
For “SKSNKIFVGGIPHNCGETELREYFKKFGVVTEVVMIYDAEKQRPRGFGFITFEDEQSVDQAVNMHFHDIMGKKVEVKRAEPRDSKS”, the protein production result is on record as “not failed”.
With “SLDVQRVGKAGLHRVDSKKQQTAAGVSFSEVMGKQRDEKAYERLQALMSKIDDQGKLLSETRTIEELRKYKELVKEFVGDAVELGLRLEERRGFNRRGRTKIYKIVKEVDRKLLDLTDAVLAKEKKGLDILNMVGEIKGLLINIYA”, the protein production result is on record as “not failed”.
Take “SLENVLASHSKMQGALEKVQIELGRRDSEIAGLKKERDLNQQRVQKLEAEVDQWQARMLVMEDQHNSEIESLQKALGVAREDNRKLAMSLEQALQTNNHLQTKLDHIQEQLESKELERQNLETFKDRMTEESKVEAELHAERIEALRKQFQTERETTKKVAQREVAELKKALDEANFRSVEVSRTNRELRQKLAELEKILESNKEKIKNQKTQIKLHLSAKANNAQNIERMKVVWETSSHFLDTL”: the protein production result is “not failed”.
